This is an account of results in publication PMC5796856 (Molecular microbiology, 2018).

Positions count from the first letter of the chain named. Numbers in names are those of the source.

The target of one series is FtsA (E. coli) (UniProt P0ABH0). The series can be described thus: co-sedimentation.
Series [1] addresses FtsA (Escherichia coli, UniProt P0ABH0, K86A). Put plainly: mant fluorescence titration. Format: binding.
For series [2], the target named is T1, FtsA (Escherichia coli, UniProt P0ABH0).
T1 sequence (P0ABH0 1-420): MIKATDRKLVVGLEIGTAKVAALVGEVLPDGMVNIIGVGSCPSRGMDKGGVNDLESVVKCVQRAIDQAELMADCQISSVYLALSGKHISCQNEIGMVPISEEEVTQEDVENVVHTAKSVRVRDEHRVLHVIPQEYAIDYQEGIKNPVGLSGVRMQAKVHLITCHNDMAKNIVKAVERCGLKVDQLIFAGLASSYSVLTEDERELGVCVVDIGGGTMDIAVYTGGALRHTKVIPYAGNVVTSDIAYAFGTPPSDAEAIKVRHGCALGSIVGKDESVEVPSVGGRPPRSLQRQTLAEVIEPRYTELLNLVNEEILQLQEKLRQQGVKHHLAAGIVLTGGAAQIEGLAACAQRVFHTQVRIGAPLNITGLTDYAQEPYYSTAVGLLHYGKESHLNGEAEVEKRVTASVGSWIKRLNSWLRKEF
The series can be described thus: mant fluorescence titration. The format is binding.

The series “SEC” deals with the molecule itself. The series can be described thus: SEC.
In series [3] the target is T2, FtsA (E. coli, UniProt P0ABH0 1-420).
T2 sequence (looked up): T1 sequence (P0ABH0 1-420)
The series can be described thus: confocal fluorescence microscopy of recruitment to vesicles in vitro.

Series [4] concerns the molecule itself. The series can be described thus: sedimentation of polymers by ultracentrifugation.

Chain of FtsA (Escherichia coli, UniProt P0ABH0, K86A) (P0ABH0 whole entry K86A): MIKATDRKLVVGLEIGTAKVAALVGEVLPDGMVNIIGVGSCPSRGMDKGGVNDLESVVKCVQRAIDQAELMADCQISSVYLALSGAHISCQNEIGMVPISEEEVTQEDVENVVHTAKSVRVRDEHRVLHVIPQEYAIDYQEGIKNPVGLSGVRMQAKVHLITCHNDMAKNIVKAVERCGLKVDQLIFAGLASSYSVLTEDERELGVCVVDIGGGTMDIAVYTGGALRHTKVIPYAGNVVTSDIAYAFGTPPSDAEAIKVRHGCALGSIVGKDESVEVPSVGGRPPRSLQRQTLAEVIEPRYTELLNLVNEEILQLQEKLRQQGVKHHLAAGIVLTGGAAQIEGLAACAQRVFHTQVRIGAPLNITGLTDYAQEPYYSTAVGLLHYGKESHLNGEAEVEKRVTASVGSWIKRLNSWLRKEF

“FtsZ(R379E) (from UniProt P0A9A6 1-383) (natural protein)” yielded a percent of FtsZ in the pellet in the series with FtsA (E. coli) of 35.6%.

Usually Kd stands for the concentration at which binding is half-saturated. Read a high Kd as lower affinity. Turning to `CNc1ccccc1C(=O)O[C@H]1[C@@H](O)[C@H](n2cnc3c(N)ncnc32)O[C@@H]1CO[P@@](=O)(O)O[P@](=O)(O)OP(=O)(O)O` [mant-ATP], the Kd at FtsA [1] was determined as 27.9 ± 0.5 µM; on FtsA [2] it was 26.2 ± 3 µM.

B1: FtsA(ΔMTS) (domain or fragment, E. coli, UniProt P0ABH0 1-404, looked up)
chain: MIKATDRKLVVGLEIGTAKVAALVGEVLPDGMVNIIGVGSCPSRGMDKGGVNDLESVVKCVQRAIDQAELMADCQISSVYLALSGKHISCQNEIGMVPISEEEVTQEDVENVVHTAKSVRVRDEHRVLHVIPQEYAIDYQEGIKNPVGLSGVRMQAKVHLITCHNDMAKNIVKAVERCGLKVDQLIFAGLASSYSVLTEDERELGVCVVDIGGGTMDIAVYTGGALRHTKVIPYAGNVVTSDIAYAFGTPPSDAEAIKVRHGCALGSIVGKDESVEVPSVGGRPPRSLQRQTLAEVIEPRYTELLNLVNEEILQLQEKLRQQGVKHHLAAGIVLTGGAAQIEGLAACAQRVFHTQVRIGAPLNITGLTDYAQEPYYSTAVGLLHYGKESHLNGEAEVEKRVTAS
For orientation: stoichiometry N means a count of units in the complex or per binding partner. On to B1, for which the “stoichiometry N” value in the series “SEC” was found to be 2.

B2: FL-FtsZ (natural protein, E. coli, UniProt P0A9A6 1-383, looked up)
chain: MFEPMELTNDAVIKVIGVGGGGGNAVEHMVRERIEGVEFFAVNTDAQALRKTAVGQTIQIGSGITKGLGAGANPEVGRNAADEDRDALRAALEGADMVFIAAGMGGGTGTGAAPVVAEVAKDLGILTVAVVTKPFNFEGKKRMAFAEQGITELSKHVDSLITIPNDKLLKVLGRGISLLDAFGAANDVLKGAVQGIAELITRPGLMNVDFADVRTVMSEMGYAMMGSGVASGEDRAEEAAEMAISSPLLEDIDLSGARGVLVNITAGFDLRLDEFETVGNTIRAFASDNATVVIGTSLDPDMNDELRVTVVATGIGMDKRPEITLVTNKQVQQPVMDRYQQHGMAPLTQEQKPVAKVVNDNAPQTAKEPDYLDIPAFLRKQAD
modifications: Alexa Fluor 488 label
As to B2, the binding result with FtsA [3] is given as “binds”.

B3: FtsZ(R379E) (natural protein, E. coli, UniProt P0A9A6 1-383, looked up)
chain: B2 chain with R379E
Consider B3, for which, in series [4], the binding result is given as “binds”.

B4: FtsZ (natural protein, E. coli, UniProt P0A9A6 1-383, looked up)
chain: B2 chain
For B4, in series [4], the binding result was “binds”.
